{"source": "patent US20130205416A1", "assay_in_all_cases": "cell-based or functional assay", "key": {"[1]": {"biological_target": "haemagglutinin of influenza virus A/Udorn/72 (H3N2) (Influenza A virus A/Udorn/72 H3N2)"}, "[2]": {"biological_target": "haemagglutinin of A/England/195/09 (H1N1), on PR8 recombinant virus (Influenza A virus A/England/195/09 (H1N1))"}, "[3]": {"biological_target": "haemagglutinin of A/Victoria/3/75 (H3N2), on PR8 recombinant virus (Influenza A virus A/Victoria/3/75 (H3N2)), P03435"}}}
{"binder": "WLVFFVIFYFFRRRKK (modifications not checked)", "note": "[FP3 peptide (…)]", "values": [{"measurement": "IC50 in plaque reduction assay", "setting": "[1]", "value": 16, "unit": "µM"}, {"measurement": "IC50 of inhibition of infectivity (plaque reduction assay)", "setting": "[2]", "value": "66 to 100", "unit": "nM"}, {"measurement": "IC50 in plaque reduction assay", "setting": "[3]", "value": 16, "unit": "µM"}]}
